Results reported in PMC12514839 (Protein science : a publication of the Protein Society, 2025).

Target: CU228, putative PAS-HTH transcription factor from Candidatus Solibacter usitatus (Candidatus Solibacter usitatus)
Experiment: SEC-MALS

stoichiometry N: 2
Substance: CU228, putative PAS-HTH transcription factor from Candidatus Solibacter usitatus (natural protein)
